Km data for two proteins are collected here from publication PMC8044227, “Cardiolipin enhances the enzymatic activity of cytochrome bd and cytochrome bo3 solubilized in dodecyl-maltoside” (Scientific Reports, 2021).

Substrate in this series: COc1c(O)c(C)c(CC=C(C)C)c(O)c1OC
Briefly: O2 consumption, Clark-type electrode. In kind it is biochemical, Escherichia coli. The following applies: no cardiolipin, 0.025% DDM, 50 mM MOPS, 100 mM NaCl, pH 7.5, 37 °C, 10 mM DTT.

B1: cytochrome bo3 (E. coli) (Escherichia coli K-12) (protein)
chain: MFGKLSLDAVPFHEPIVMVTIAGIILGGLALVGLITYFGKWTYLWKEWLTSVDHKRLGIMYIIVAIVMLLRGFADAIMMRSQQALASAGEAGFLPPHHYDQIFTAHGVIMIFFVAMPFVIGLMNLVVPLQIGARDVAFPFLNNLSFWFTVVGVILVNVSLGVGEFAQTGWLAYPPLSGIEYSPGVGVDYWIWSLQLSGIGTTLTGINFFVTILKMRAPGMTMFKMPVFTWASLCANVLIIASFPILTVTVALLTLDRYLGTHFFTNDMGGNMMMYINLIWAWGHPEVYILILPVFGVFSEIAATFSRKRLFGYTSLVWATVCITVLSFIVWLHHFFTMGAGANVNAFFGITTMIIAIPTGVKIFNWLFTMYQGRIVFHSAMLWTIGFIVTFSVGGMTGVLLAVPGADFVLHNSLFLIAHFHNVIIGGVVFGCFAGMTYWWPKAFGFKLNETWGKRAFWFWIIGFFVAFMPLYALGFMGMTRRLSQQIDPQFHTMLMIAASGAVLIALGILCLVIQMYVSIRDRDQNRDLTGDPWGGRTLEWATSSPPPFYNFAVVPHVHERDAFWEMKEKGEAYKKPDHYEEIHMPKNSGAGIVIAAFSTIFGFAMIWHIWWLAIVGFAGMIITWIVKSFDEDVDYYVPVAEIEKLENQHFDEITKAGLKNGN
notes: His-tagged complex overexpressed in E. coli GO105/pJRhisA, Ni-Sepharose-purified in DDM
With B1, the Km stood at 56 ± 13 µM.

B2: cytochrome bd (E. coli) (Escherichia coli K-12) (protein)
chain: MLDIVELSRLQFALTAMYHFLFVPLTLGMAFLLAIMETVYVLSGKQIYKDMTKFWGKLFGINFALGVATGLTMEFQFGTNWSYYSHYVGDIFGAPLAIEGLMAFFLESTFVGLFFFGWDRLGKVQHMCVTWLVALGSNLSALWILVANGWMQNPIASDFNFETMRMEMVSFSELVLNPVAQVKFVHTVASGYVTGAMFILGISAWYMLKGRDFAFAKRSFAIAASFGMAAVLSVIVLGDESGYEMGDVQKTKLAAIEAEWETQPAPAAFTLFGIPDQEEETNKFAIQIPYALGIIATRSVDTPVIGLKELMVQHEERIRNGMKAYSLLEQLRSGSTDQAVRDQFNSMKKDLGYGLLLKRYTPNVADATEAQIQQATKDSIPRVAPLYFAFRIMVACGFLLLAIIALSFWSVIRNRIGEKKWLLRAALYGIPLPWIAVEAGWFVAEYGRQPWAIGEVLPTAVANSSLTAGDLIFSMVLICGLYTLFLVAELFLMFKFARLGPSSLKTGRYHFEQSSTTTQPAR
notes: CydABX complex, Strep-tag, expressed in E. coli MB43, streptactin-purified in DDM
For B2, the Km was 95 ± 16 µM.

By Km is commonly meant the substrate concentration at which the rate is half of its maximum.
